In assay [1] the target is FGFRs expressed on NIH3T3 cells. Kind of assay: cell-based or functional assay.
Assay [2] has the same target. Kind of assay: equilibrium titration of His-tagged FGF1 on FGFR-expressing NIH3T3 cells at 4 °C, flow cytometry with anti-His antibody. In general terms: Flow cytometry measures light scatter and fluorescence of single cells or particles in a stream.

As for “FGF1 L131R mutant, recombinant soluble, His-tagged (from UniProt P14210 16-155) (ligand)”, the inhibition of ERK phosphorylation induced by 1 nM wild type FGF1 in NIH3T3 cells (Western blot against phosphoERK) in assay [1] stood at 1 nM.

A word on the Kd: it is a measure of binding affinity in units of concentration. The low end stands for tighter binding, the high end for weaker binding. As for “recombinant soluble wild-type FGF1 with N-terminal 6x His tag (from UniProt P14210 16-155) (ligand)”, the dissociation constant (Kd) in assay [2] came to 10 nM.

These data come from US20220023385A1.
